Target: calmodulin (unlabeled, as used in the gel mobility-shift and kinase assays of Example 2) (UniProt P04353)

## lily CCaMK truncation mutant 1-356
  Ca2+/calmodulin-dependent kinase activity (histone IIAS phosphorylation): retained Ca2+/calmodulin-dependent kinase activity at a substantially reduced level
